In patent publication US20140080766:

System: E6N2 (E6 Fn3-mouse IgG2a Fc-human PKR dsRBD fusion, homodimer) C121V,C135V (in dsRBD) (Homo sapiens)
Assay: flow
Conditions: KD,app; E6N2 on Protein A beads; DMEM+10% FBS, 37 C, 1 h; pH presumably 7.4; avidity from bivalent dsRBD

## AllStars Negative Control siRNA (Qiagen)
  Kd: 3.5 nM
